Key:
[1] = test system: NIH 3T3 2.2 cells transiently transfected with hIGF2R; test: Internalization in NIH 3T3 2.2 cells transiently transfected with hIGF2R; assay type: cell-based, human; settings: 25 nM VHH conjugated to Alexa Fluor 647
Description: (§1) To assess if monovalent 13F11 and biparatopic 13F11-13E8 are internalized in the hIGF2R expressing cells, A549 cells (FIG. 16A) and NIH 3T3 2.2 cells transiently transfected with hIGF2R (FIG. 16B) were incubated with 25 nM VHH conjugated to Alexa Fluor 647 (conjugation method as described in example 9.2). A Mouse anti-IGF2R mAb was included to detect IGF2R expression on the hIGF2R transfected cells NIH 3T3 2.2 (FIG. 16B, right column), the mAb was detected with a goat anti-mouse mAb conjugated to Alexa Fluor 555. Additionally, mock transfected NIH 3T3 2.2 cells were incubated with 13F11 and 13F11-13E8 (FIG. 16C). […]
(§2) (FIG. 10D). […] The rate of internalization (endocytic rate constant, ke) of biparatopic constructs 13F11-13E8 and 13E8-13F11 was determined with a kinetic internalization assay on SCC-VII cells transfected with hIGF2R and rIGF2R. […] Subsequently, cells were washed with cold PBS and the non-internalized VHH construct (bound fraction) was separated from the internalized construct (internalized fraction) using an acid-wash, as described above, after which the fluorescence of both fractions were measured. […] Internalization was also observed in rIGF2R expressing SCC cells as a clear increase in fluorescence over time can be shown in FIG. 17 (ke around 0.7 min-1).

[2] = In vivo pharmacokinetics in healthy Sprague-Dawley rats (serum ELISA); parameters: species or system rat; settings: rat, i.v., approximately 3 mg/kg; LOD approximately 20 nM
Description: The in vivo pharmacokinetic properties of 13F11-13E8-ABD was compared to 13F11-13E8 without the ABD moiety in healthy Sprague-Dawley rats. In brief, rats were dosed intravenously with approximately 3 mg/kg body weight and blood samples were taken at different time points and the concentration of the VHH constructs were determined using an ELISA on immobilized hIGF2R-ECD.

[3] = test system: rIGF2R expressing SCC cells; test: Kinetic internalization assay on rIGF2R expressing SCC cells; assay type: cell-based, rat; settings: 10 nM IRD800CW conjugate, 37° C., up to 12 minutes
Description: (§3) (FIG. 10D). […] The differences in internalization are possibly related to the differences in IGF2R expression levels on the target cells. […] Summarizing, biparatopic 13F11-13E8 clearly internalizes in cells expressing hIGF2R on the cell surface. The rate of internalization (endocytic rate constant, ke) of biparatopic constructs 13F11-13E8 and 13E8-13F11 was determined with a kinetic internalization assay on SCC-VII cells transfected with hIGF2R and rIGF2R. Briefly, 10 nM of IRD800CW conjugated 13F11-13E8 or 13E8-13F11 (conjugation method as described in example 9.2) was added to hIGF2R expressing SCC cells or rIGF2R expressing SCC cells and incubated at 37° C. for different time points up to 12 minutes. Internalization was then purposely halted by putting the cells on ice. Subsequently, cells were washed with cold PBS and the non-internalized VHH construct (bound fraction) was separated from the internalized construct (internalized fraction) using an acid-wash, as described above, after which the fluorescence of both fractions were measured. Both constructs internalize with similar endocytic rate constants (ke around 1.5 min-1) in the hIGF2R expressing SCC cells (FIG. 17). Internalization was also observed in rIGF2R expressing SCC cells as a clear increase in fluorescence over time can be shown in FIG. 17 (ke around 0.7 min-1).

[4] = test system: A549 cells (IGF2R positive); test: Internalization in A549 cells (acid wash, confocal); assay type: cell-based, human; settings: 25 nM VHH conjugated to Alexa Fluor 647
Description: as §1, §2

[5] = test system: mock transfected NIH 3T3 2.2 cells; test: Internalization in mock transfected NIH 3T3 2.2 cells; assay type: cell-based; settings: 25 nM VHH conjugated to Alexa Fluor 647
Description: as §1, §2

hIGF2R-ECD = biological target: T1, hIGF2R-ECD (Homo sapiens, UniProt P11717); test: Binding assay / titration ELISA on recombinant hIGF2R-ECD; settings: construct conjugated to Alexa Fluor 647, direct read out; KD+SEM, n=2; read-out: calculated affinity (KD)
T1 construct: recombinant human extracellular domain of IGF2R (hIGF2R-ECD)
Description: The 15 unique hIGF2R binders (Example 1.1, FIG. 2) were produced and purified as described in examples 2 and 3. The apparent affinities were determined with binding assays on hIGF2R-ECD. Briefly, three-fold serial VHH dilutions, starting from 1 μM, were added onto hIGF2R-ECD coated plates. After 2 hours of incubation, plates were washed and bound VHH was detected using a VHH-specific IgG antibody, followed by an IRD800CW-conjugated IgG-specific antibody. […] VHH 13F11 was also produced with a C-terminal free cysteine and conjugated using maleimide chemistry to Alexa Fluor 647 (13F11-A647 in FIG. 8A, conjugation method as described in example 9.2). A titration ELISA (direct read out at 647 nm) with this construct was carried out on hIGF2R-ECD to determine whether the affinity was affected after site directed conjugation (FIG. 8B). The KD and Bmax were calculated in Graphpad (version 8.3), using one-site specific binding analysis (FIG. 8C).
Based on their high affinity and binding to non-overlapping receptor epitopes, VHHs 13F11 and 13E8 were selected for the design of biparatopic and bivalent VHH constructs. Two VHHs were fused with a flexible linker, consisting of three Gly-Gly-Gly-Gly-Ser repeats (FIG. 8A). The sequences were codon optimized for expression in E. coli and obtained as synthesized DNA fragments from GeneArt. The DNA fragments encoding VHHs were cloned into a vector pET28-based vector introducing a C-terminal free cysteine for site-directed conjugation and His6 tag for IMAC purification (FIG. 8A). The constructs were produced and purified as described in example 3. The constructs were conjugated to Alexa Fluor 647 (conjugation method as described in example 9.2) and titration ELISAs on recombinant hIGF2R-ECD (as described in example 4.1) were performed to determine the KD and Bmax (calculated in Graphpad (version 8.3), using one-site specific binding analysis) (FIG. 8C).
Next, 13F11-13E8 was genetically re-engineered to include an in vivo half-life extender in the form of an albumin binding domain (ABD) as described by Johansson et al (Structure, specificity, and mode of interaction for bacterial albumin-binding modules, J. Biol. Chem. 2002 (277): 8114-8120) and subsequently produced and purified as described in Example 3. Subsequently, 13F11-13E8-ABD was conjugated to IRDye800CW (F11E8-ABD-IRD800, conjugation method as described in example 9.2) and the binding affinities of the biparatopic VHH as well as the ABD unit was determined. […] The binding affinity (KD) of F11-E8-ABD-IRD800 to rat serum albumin (RSA) was 30 nM and to mouse serum albumin (MSA) and human serum albumin (HSA) the binding affinity was approximately 200 nM.

activated HSCs LX-2 = test: Internalization in living LX-2 cells with pHrodo red conjugates; assay type: cell-based, human; settings: 50 nM pHrodo-red conjugate
Text: Internalization of monovalent 13F11 and biparatopics 13F11-13E8 and 13E8-13F11 in living activated HSCs LX-2 was visualized using the pHrodo pH dependent probe (ThermoFisher Scientific). The pH probe becomes more fluorescent as the pH of the surroundings decreases accordingly. Endosomes and lysosomes have a pH maintained at 6.5 and 4.5, respectively, compared to cytoplasmic pH of 7.0, and thus internalization of a VHH-pHrodo construct can be visualized when it internalizes via the endosomal pathway. LX-2 cells were incubated at 37° C. for 2 hours with 50 nM of pHrodo-red conjugated 13F11, 13F11-13E8 and 13E8-13F11 (conjugation method as described in example 9.2). Images were taken at 5 min. intervals using a wide-field PEXScope microscope (Nikon) with a mCherry filter and 40× oil objective. […] Additionally, both internalized 13F11-13E8 and 13E8-13F11 accumulate into perinuclear compartments (endosomes/lysosomes).

[6] = test system: hIGF2R expressing SCC cells; test: Kinetic internalization assay on hIGF2R expressing SCC cells; assay type: cell-based, human; settings: 10 nM IRD800CW conjugate, 37° C., up to 12 minutes
Description: as §3

B1: 13F11-13E8: biparatopic anti-IGF2R VHH construct, 13F11 and 13E8 fused with (Gly-Gly-Gly-Gly-Ser)3 linker (protein)
chain: EVQLVESGGRLVQPGDSLRLSCAASGRTFSDNAMGWFRQAPGKERRFVAGISWAGGSTYYSDSVKGRFTISRDNAKNTVYLQMNSLKPEDTAVYYCAAGLRAWVQRMPKDYNYWGQGTQVTVSSGGGGSGGGGSGGGGSEVQLVESGGGLVQAGGSLRLSCAASRSISPMGWYRQAPGKQRELVAIMPSSGPPIYADSVQGRFTISRDNAKNTVYLQMNSLKPEDTAVYYCNVGGGYWGQGTQVTVSS
modifications: left off: small tags and cut ends
notes: biparatopic anti-IGF2R VHH construct, 13F11 and 13E8 fused with (Gly-Gly-Gly-Gly-Ser)3 linker
**Q.** Which “internalization in hIGF2R transfected NIH 3T3 2.2 cells” value [1] does the source give for B1 here?
**A.** did internalise

**Q.** What about the clearance from circulation [2] of the same molecule?
**A.** could not be detected anymore within two hours after injection

**Q.** And the “endocytic rate constant (ke)” value [3]?
**A.** around 0.7 min-1

**Q.** And the “internalization in A549 cells” value [4]?
**A.** clearly internalized

**Q.** What about the “internalization in mock transfected NIH 3T3 2.2 cells” value [5] of the same molecule?
**A.** did not internalize

**Q.** What about the Kd (hIGF2R-ECD) of the same molecule?
**A.** 2.5 ± 1.87 nM

**Q.** What about the “intracellular fluorescence compared to the monovalent construct” value (activated HSCs LX-2; 37° C., from 15 min. onwards) of the same molecule?
**A.** more pronounced increase in intracellular fluorescence

**Q.** What about the “rate of internalization compared to 13E8-13F11” value (activated HSCs LX-2; 40-min. time period) of the same molecule?
**A.** higher rate of internalization

**Q.** What about the “endocytic rate constant (ke)” value [6] of the same molecule?
**A.** around 1.5 min-1

— patent publication US12552866B2, “Internalizing binding molecules targeting receptors involved in cell proliferation or in cell differentiation” (LinXis B.V., priority 2019, dated 2026)
